Measurements: PMC4695088, “An Oomycete CRN Effector Reprograms Expression of Plant HSP Genes by Targeting their Promoters”

Columns and labels:
MBP:PsCRN108 [1] = target: T1, MBP:PsCRN108 (Phytophthora sojae, UniProt A0A0M5K865 18-820); experiment: pull-down; 25 mM HEPES pH 8, 10 mM MgCl2, 20 mM KCl, 0.1 mM EDTA, 1 mM DTT, 100 ng poly(dI-dC), 5% glycerol, 25 C (EMSA 3 h; pull-down in the same buffer, 1 h + 1 h); conditions: protein: recombinant; tags: N-terminal His, MBP (pHMTc); label: 5' biotin; blunt
T1 sequence: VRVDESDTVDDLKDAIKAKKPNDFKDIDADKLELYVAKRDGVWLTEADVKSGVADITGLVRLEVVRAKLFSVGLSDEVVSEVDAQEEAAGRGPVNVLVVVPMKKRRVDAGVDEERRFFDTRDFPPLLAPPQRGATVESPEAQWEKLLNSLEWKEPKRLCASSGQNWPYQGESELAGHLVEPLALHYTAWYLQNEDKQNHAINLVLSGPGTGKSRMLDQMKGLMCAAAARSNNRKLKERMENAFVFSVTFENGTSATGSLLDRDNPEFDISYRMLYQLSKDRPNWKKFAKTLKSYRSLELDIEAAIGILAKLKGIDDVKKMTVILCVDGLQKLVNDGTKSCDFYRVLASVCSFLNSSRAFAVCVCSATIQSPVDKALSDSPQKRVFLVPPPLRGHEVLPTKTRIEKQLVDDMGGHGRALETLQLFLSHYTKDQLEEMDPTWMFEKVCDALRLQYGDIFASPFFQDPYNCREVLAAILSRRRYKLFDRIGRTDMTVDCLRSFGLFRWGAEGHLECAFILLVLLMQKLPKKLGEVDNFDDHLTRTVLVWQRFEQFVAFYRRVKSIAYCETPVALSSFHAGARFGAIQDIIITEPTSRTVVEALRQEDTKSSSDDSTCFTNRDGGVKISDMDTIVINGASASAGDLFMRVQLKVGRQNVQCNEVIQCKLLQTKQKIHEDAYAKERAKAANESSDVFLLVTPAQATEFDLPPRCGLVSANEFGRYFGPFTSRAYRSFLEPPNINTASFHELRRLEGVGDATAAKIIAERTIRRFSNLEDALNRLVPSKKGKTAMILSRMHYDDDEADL

GST:PsCRN108 = target: T2, GST:PsCRN108 (Phytophthora sojae, UniProt A0A0M5K865 18-820); experiment: as above; conditions: protein: recombinant; tags: N-terminal GST (pGEX-4T-2); label: 5' biotin; blunt
T2 sequence: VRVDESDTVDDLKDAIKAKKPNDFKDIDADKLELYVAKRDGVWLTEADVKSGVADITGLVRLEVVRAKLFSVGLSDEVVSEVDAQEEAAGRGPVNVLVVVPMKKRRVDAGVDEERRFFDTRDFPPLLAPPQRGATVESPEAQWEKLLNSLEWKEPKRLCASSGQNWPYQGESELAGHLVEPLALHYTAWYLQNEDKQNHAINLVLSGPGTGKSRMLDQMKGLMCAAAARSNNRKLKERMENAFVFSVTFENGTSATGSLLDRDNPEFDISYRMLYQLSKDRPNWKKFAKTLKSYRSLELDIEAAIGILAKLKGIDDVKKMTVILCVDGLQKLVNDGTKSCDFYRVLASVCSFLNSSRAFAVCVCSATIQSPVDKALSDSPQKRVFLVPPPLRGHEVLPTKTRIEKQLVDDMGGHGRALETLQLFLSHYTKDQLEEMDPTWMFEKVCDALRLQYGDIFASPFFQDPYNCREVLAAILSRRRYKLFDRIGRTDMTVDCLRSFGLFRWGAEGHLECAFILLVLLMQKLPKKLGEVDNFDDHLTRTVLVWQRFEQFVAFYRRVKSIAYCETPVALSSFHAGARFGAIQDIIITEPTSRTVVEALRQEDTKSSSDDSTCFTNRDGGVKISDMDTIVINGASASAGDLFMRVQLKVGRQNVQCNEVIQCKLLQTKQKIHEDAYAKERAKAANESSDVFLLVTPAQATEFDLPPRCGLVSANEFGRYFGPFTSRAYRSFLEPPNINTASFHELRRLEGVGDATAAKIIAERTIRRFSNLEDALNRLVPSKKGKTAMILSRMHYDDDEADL

MBP:AtHsfA1a [2] = target: T3, MBP:AtHsfA1a (Arabidopsis thaliana, UniProt P41151 1-495); experiment: as above; conditions: protein: recombinant; tags: N-terminal His, MBP (pHMTc); chain copies: 3; label: 5' biotin; blunt
T3 sequence (P41151 whole entry): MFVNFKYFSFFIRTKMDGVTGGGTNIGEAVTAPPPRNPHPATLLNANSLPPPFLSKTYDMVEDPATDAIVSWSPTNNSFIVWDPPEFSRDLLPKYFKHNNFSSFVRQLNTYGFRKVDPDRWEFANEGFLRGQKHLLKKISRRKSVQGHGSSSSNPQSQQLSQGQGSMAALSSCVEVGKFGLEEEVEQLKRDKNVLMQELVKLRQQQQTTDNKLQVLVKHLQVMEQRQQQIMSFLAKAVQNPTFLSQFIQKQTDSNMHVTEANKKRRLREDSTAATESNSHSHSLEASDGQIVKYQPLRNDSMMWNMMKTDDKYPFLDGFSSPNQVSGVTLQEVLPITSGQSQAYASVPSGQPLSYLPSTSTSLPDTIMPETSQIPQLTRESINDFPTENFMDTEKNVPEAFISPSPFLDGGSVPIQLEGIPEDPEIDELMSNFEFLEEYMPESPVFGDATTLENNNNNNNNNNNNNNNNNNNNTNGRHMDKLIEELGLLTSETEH
MBP:AtHsfA1a [3] = target: T3, MBP:AtHsfA1a; experiment: EMSA; up to 2 uM protein, 5 nM DNA; complex in wells; competed by unlabeled HSE; 25 mM HEPES pH 8, 10 mM MgCl2, 20 mM KCl, 0.1 mM EDTA, 1 mM DTT, 100 ng poly(dI-dC), 5% glycerol, 25 C (EMSA 3 h; pull-down in the same buffer, 1 h + 1 h); conditions: protein: recombinant; tags: N-terminal His, MBP (pHMTc); chain copies: 3; label: 5' Alex660 (EMSA); blunt
MBP:PsCRN108 [4] = target: T1, MBP:PsCRN108; experiment: EMSA; up to 6 uM protein, 5 nM DNA; weaker than AtHsfA1a; complex in wells; competed by unlabeled HSE; 25 mM HEPES pH 8, 10 mM MgCl2, 20 mM KCl, 0.1 mM EDTA, 1 mM DTT, 100 ng poly(dI-dC), 5% glycerol, 25 C (EMSA 3 h; pull-down in the same buffer, 1 h + 1 h); conditions: protein: recombinant; tags: N-terminal His, MBP (pHMTc); label: 5' Alex660 (EMSA); blunt

B1: biotinylated 19 bp HSE (dsDNA)
DNA 1: CCAGAAGCTTCCAGAAGCC
DNA 2: GGCTTCTGGAAGCTTCTGG
MBP:PsCRN108 [1]
  binding result: binds
GST:PsCRN108
  binding result: binds
MBP:AtHsfA1a [2]
  binding result: binds

B2: 19 bp HSE (dsDNA)
DNA 1: CCAGAAGCTTCCAGAAGCC
DNA 2: GGCTTCTGGAAGCTTCTGG
MBP:AtHsfA1a [3]
  binding result: binds
MBP:PsCRN108 [4]
  binding result: binds
